According to patent publication US20200199204A1:

How the values were obtained:
Assay in all cases: cell-based or functional assay
[1] = biological target: HIV-1 Env of 0260.v5.c36 (HIV-1)
[2] = biological target: HIV-1 Env of CNE3 (HIV-1)
[3] = biological target: HIV-1 Env of THRO.18 (HIV-1)
[4] = biological target: HIV-1 Env of RW020.2 (HIV-1)
[5] = biological target: HIV-1 Env of ZM214.15 (HIV-1)
[6] = biological target: HIV-1 Env of SC422.8 (HIV-1)
[7] = biological target: HIV-1 Env of CAP244.D3 (HIV-1)
[8] = biological target: HIV-1 Env of ZM135.10a (HIV-1)
[9] = biological target: HIV-1 Env of C1080.c3 (HIV-1)
[10] = biological target: HIV-1 Env of MB539.2B7 (HIV-1)
[11] = biological target: HIV-1 Env of CAP256.SU (HIV-1)
[12] = biological target: HIV-1 Env of REJO.67 (HIV-1)
[13] = biological target: HIV-1 Env of CAAN.A2 (HIV-1)
[14] = biological target: HIV-1 Env of UG037.8 (HIV-1)
[15] = biological target: HIV-1 Env of QH0692.42 (HIV-1)
[16] = biological target: HIV-1 Env of TH976.17 (HIV-1)
[17] = biological target: HIV-1 Env of BG505.w6m (HIV-1)
[18] = biological target: Env of SIVmac251.30 (SIV (SIVmac251))
[19] = biological target: HIV-1 Env of RHPA.7 (HIV-1)
[20] = biological target: HIV-1 Env of Q259.d2.17 (HIV-1)
[21] = biological target: HIV-1 Env of ZM53.12 (HIV-1)
[22] = biological target: HIV-1 Env of 6535.3 (HIV-1)
[23] = biological target: HIV-1 Env of CAP210.E8 (HIV-1)
[24] = biological target: HIV-1 Env of Q842.d12 (HIV-1)
[25] = biological target: HIV-1 Env of ZM233.6 (HIV-1)
[26] = biological target: HIV-1 Env of CAP45.G3 (HIV-1)
[27] = biological target: HIV-1 Env of DU156.12 (HIV-1)
[28] = biological target: HIV-1 Env of 6405.v4.c34 (HIV-1)
[29] = biological target: HIV-1 Env of TRJO.58 (HIV-1)
[30] = biological target: HIV-1 Env of ZM197.7 (HIV-1)
[31] = biological target: HIV-1 Env of DU172.17 (HIV-1)
[32] = biological target: HIV-1 Env of CAP256.PI (HIV-1)
[33] = biological target: HIV-1 Env of AC10.29 (HIV-1)
[34] = biological target: HIV-1 Env of CM244.ec1 (HIV-1)
[35] = biological target: HIV-1 Env of WITO.33 (HIV-1)
[36] = biological target: HIV-1 Env of KER2018.11 (HIV-1)
[37] = biological target: HIV-1 Env of Q168.a2 (HIV-1)
[38] = biological target: HIV-1 Env of 96ZM651.02 (HIV-1)
[39] = biological target: HIV-1 Env of Q461.e2 (HIV-1)
[40] = biological target: HIV-1 Env of DU422.01 (HIV-1)
[41] = biological target: HIV-1 Env of ZM249.1 (HIV-1)
[42] = biological target: HIV-1 Env of Q769.d22 (HIV-1)
[43] = biological target: HIV-1 Env of ZM109.4 (HIV-1)
[44] = biological target: HIV-1 Env of 3016.V5.c36 (HIV-1)
[45] = biological target: HIV-1 Env of KER2008.12 (HIV-1)
[46] = biological target: HIV-1 Env of TRO.11 (HIV-1)
[47] = biological target: HIV-1 Env of MB201 (HIV-1)
[48] = biological target: HIV-1 Env of PVO.04 (HIV-1)
[49] = biological target: HIV-1 Env of Q23.17 (HIV-1)
[50] = biological target: HIV-1 Env of 191821.E6.1 (HIV-1)

CAP256-VRC26.24 (antibody)
IC50 [1]: > 50 µg/mL | IC50 (neutralization, TZM-bl) [2]: > 50 µg/mL | IC50 [3]: > 50 µg/mL | IC50 [4]: > 50 µg/mL | IC50 [5]: 32 µg/mL | IC50 [6]: > 50 µg/mL | IC50 [7]: > 50 µg/mL | IC50 [8]: > 50 µg/mL | IC50 [9]: 17.4 µg/mL | IC50 [10]: > 50 µg/mL | IC50 [11]: 0.04 µg/mL | IC50 [12]: > 50 µg/mL | IC50 [13]: > 50 µg/mL | IC50 [14]: > 50 µg/mL | IC50 [15]: > 50 µg/mL | IC50 (neutralization, TZM-bl) [16]: > 50 µg/mL | IC50 [17]: 5.63 µg/mL | IC50 (neutralization, TZM-bl) [18]: > 50 µg/mL | IC50 [19]: > 50 µg/mL | IC50 [20]: 31.1 µg/mL | IC50 [21]: 0.047 µg/mL | IC50 [22]: > 50 µg/mL | IC50 [23]: 0.23 µg/mL | IC50 [24]: > 50 µg/mL | IC50 [25]: 1.67 µg/mL | IC50 [26]: 0.672 µg/mL | IC50 [27]: 10.8 µg/mL | IC50 [28]: > 50 µg/mL | IC50 [29]: > 50 µg/mL | IC50 [30]: 12.6 µg/mL | IC50 [31]: > 50 µg/mL | IC50 [32]: > 50 µg/mL | IC50 [33]: > 50 µg/mL | IC50 [34]: > 50 µg/mL | IC50 [35]: > 50 µg/mL | IC50 [36]: 1.1 µg/mL | IC50 [37]: 3.41 µg/mL | IC50 [38]: > 50 µg/mL | IC50 [39]: > 50 µg/mL | IC50 [40]: 21.6 µg/mL | IC50 [41]: 13.6 µg/mL | IC50 [42]: > 50 µg/mL | IC50 [43]: 16.5 µg/mL | IC50 [44]: 2.12 µg/mL | IC50 [45]: > 50 µg/mL | IC50 [46]: > 50 µg/mL | IC50 [47]: > 50 µg/mL | IC50 [48]: > 50 µg/mL | IC50 [49]: 5.92 µg/mL

CAP256-VRC26.21 (antibody)
IC50 [1]: > 50 µg/mL | IC50 (neutralization, TZM-bl) [2]: > 50 µg/mL | IC50 [3]: > 50 µg/mL | IC50 [4]: > 50 µg/mL | IC50 [5]: > 50 µg/mL | IC50 [6]: > 50 µg/mL | IC50 [7]: > 50 µg/mL | IC50 [8]: > 50 µg/mL | IC50 [9]: > 50 µg/mL | IC50 [10]: > 50 µg/mL | IC50 [11]: 0.002 µg/mL | IC50 [12]: > 50 µg/mL | IC50 [13]: > 50 µg/mL | IC50 [14]: > 50 µg/mL | IC50 [15]: > 50 µg/mL | IC50 (neutralization, TZM-bl) [16]: > 50 µg/mL | IC50 [17]: > 50 µg/mL | IC50 [19]: > 50 µg/mL | IC50 [20]: 25.4 µg/mL | IC50 [50]: > 50 µg/mL | IC50 [21]: 0.003 µg/mL | IC50 [22]: > 50 µg/mL | IC50 [23]: 0.005 µg/mL | IC50 [24]: > 50 µg/mL | IC50 [25]: 26.5 µg/mL | IC50 [26]: > 50 µg/mL | IC50 [27]: > 50 µg/mL | IC50 [28]: > 50 µg/mL | IC50 [29]: > 50 µg/mL | IC50 [30]: > 50 µg/mL | IC50 [31]: > 50 µg/mL | IC50 [32]: > 50 µg/mL | IC50 [33]: > 50 µg/mL | IC50 [34]: > 50 µg/mL | IC50 [35]: > 50 µg/mL | IC50 [36]: 0.06 µg/mL | IC50 [37]: > 50 µg/mL | IC50 [38]: > 50 µg/mL | IC50 [39]: > 50 µg/mL | IC50 [40]: 1.1 µg/mL | IC50 [41]: > 50 µg/mL | IC50 [42]: > 50 µg/mL | IC50 [43]: > 50 µg/mL | IC50 [44]: > 50 µg/mL | IC50 [45]: > 50 µg/mL | IC50 [46]: > 50 µg/mL | IC50 [47]: > 50 µg/mL | IC50 [48]: > 50 µg/mL | IC50 [49]: > 50 µg/mL
